Measured values published in publication PMC12654650, “Characterization of a β-Galactosidase from Kosakonia oryzendophytica and Its Heterologous Expression in Bacillus subtilis for Galactooligosaccharides Production” (Molecules, 2025).

Substrate: O=[N+]([O-])c1ccccc1O[C@@H]1O[C@H](CO)[C@H](O)[C@H](O)[C@H]1O
Assay: purified protein
Assay type: biochemical, Kosakonia oryzendophytica
Details: pH 7.0, 100 mM HEPES, 50 °C, 5 min, ONPG 0.3-50 mM, fit called substrate inhibition curve (Figure S4)

B1: Koor β-gal (Kosakonia oryzendophytica) (protein)
chain: MSASALRTLISRRDWENPVITHWHRLPAHAPMRSWRDEQAARDNAPSSAHRLLNGEWYFRFFPAPEAVPERWITEEYDDAVAMPVPSNWQMQGFDTPIYTNVTYPIPVNPPFVPQQNPTGCYSLTFEMTAQALAQGQTRIVFDGVNSAFYLWCNGQWIGYSQDSRLPAEFDLSDVLHVGQNRLAVMVLRWCDGSYLEDQDMWRMSGIFRDVSLQHKPATHIADFHHTTELNAEFTHGQVKVDLRLAGEYSACQVAVALWHGEEKIAQAQQAPGSAIVDERGAWAERLSVSLPVSDPLLWSAETPHLYRLTLTLLDGLGNVLEVEACNVGFRKVEISNGLLKLNGKPLLIRGVNRHEHHPENGQAIDEATMRRDIELMKQHNFNAVRCSHYPNHPLWYSLCDEYGLYVVDEANIETHGMTPMSRLSDDPQWLPAMSERVTRMVLRDRNHPSIIIWSLGNESGHGASHDALYRWLKTTDPTRPVQYEGGGANTAATDIICPMYARVDEDQPFPAVPKWSIKKWIGLPDETRPLILCEYAHAMGNSFGGFAKYWQAFRETPRLQGGFVWDWVDQALTKTDTNGQSFWAYGGDFGDTPNDRQFCMNGLVFPDRTPHPALYEAQRAQQFFQFRLLNTTPLVIEVESEYLFRTTDNEYLRWAVVRDGLVLAQGEITLAIAPQGKQQIALTIPELESAPGEVWLNVDVYQKAATPWSDAEHHCAWDQWRLPSPLFIAPRKTVSSRPMLVVSEEEYVIHHRNQRWQFCRRSGDLIQWWRDEQPTLLTPLRDSFARAPLDNDIGISEVTRIDPNAWVERWKAAGMYDLRAELLACEVEEHAADIVVTTTHCWSGAGKTGFVSHKRWRIDGEGVLHGEVDVQVATDIPPPARIGLVCQLSEVQASVSWLGLGPHENYPDRKLAARQGRWTLPLAALHTPYIFPGENGLRCETRELHYGAHHLNGDFHFSLGRYSDKQLRETTHHHLLREEAGCWLHLDAFHMGVGGDDSWSPSVSPEFILRSERVRYAFCWRQD
notes: C-terminal 6xHis tag, pET-28a(+) NcoI/XhoI, E. coli BL21(DE3), Ni-NTA; synthetic gene
- Km: 6.0 ± 0.3 mM
- kcat: 732.7 ± 43.5 s⁻¹
